Experimental data as given in paper PMC10301331, “Molecular Engineering of E. coli Bacterioferritin: A Versatile Nanodimensional Protein Cage” (Molecules, 2023).

Target: the molecule itself
Assay: SEC + other: dynamic light scattering; His-tag Bfr (alone or in ratios with WT Bfr) declustered at pH 2.0, incubated with Pro-Q Sapphire 365 NTA dye and Ni2+, reclustered by dialysis to pH 7.0 (methods: pH 8.0), then size exclusion

B1: His-tagged Escherichia coli bacterioferritin (C-terminal His-tag) (natural protein)
chain: not shown
notes: Escherichia coli bacterioferritin (Bfr) subunit; the gene coding for E. coli Bfr was cloned; also called His-tag Bfr; His-tagged Bfr; source: details in Supplementary Materials; not shown: His6 (after a two amino acid linker Leu-Glu), C-terminal, kept; copies: 24
stoichiometry N: 24
